From patent US20240075139A1
Substitutions are numbered along the chain they refer to.

Biological target: EBOV Mayinga (GenBank: NC_002549) (Zaire Ebolavirus (EBOV Mayinga)) (UniProt Q05320)
Assay: cell-based or functional assay

Sequence of UniProt Q05320 (Q05320 33-676 limits assumed): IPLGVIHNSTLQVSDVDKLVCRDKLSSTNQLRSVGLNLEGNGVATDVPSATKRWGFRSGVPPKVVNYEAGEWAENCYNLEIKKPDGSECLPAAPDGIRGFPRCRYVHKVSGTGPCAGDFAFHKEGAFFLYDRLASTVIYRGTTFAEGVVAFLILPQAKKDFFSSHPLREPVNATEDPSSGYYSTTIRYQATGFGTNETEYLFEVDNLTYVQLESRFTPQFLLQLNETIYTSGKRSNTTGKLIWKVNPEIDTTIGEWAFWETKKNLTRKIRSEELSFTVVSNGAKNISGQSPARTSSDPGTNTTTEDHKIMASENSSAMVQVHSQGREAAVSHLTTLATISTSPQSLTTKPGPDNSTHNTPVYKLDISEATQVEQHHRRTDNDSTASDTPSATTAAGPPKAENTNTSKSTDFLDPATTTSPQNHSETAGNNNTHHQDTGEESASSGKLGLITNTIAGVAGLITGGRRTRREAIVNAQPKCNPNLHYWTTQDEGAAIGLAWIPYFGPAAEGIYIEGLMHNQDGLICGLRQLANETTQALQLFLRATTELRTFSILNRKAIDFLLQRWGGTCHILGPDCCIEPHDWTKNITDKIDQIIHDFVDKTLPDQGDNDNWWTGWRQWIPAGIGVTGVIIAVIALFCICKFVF

B1: 3T0673 (antibody, V domains shown)
VH: EVQLVESGGGRVKPGGSLRVSCAVSGITFTNAWMTWVRQAPGKGLEWLGRIKSRSDGGQSDLIAPVKGRFTISRDDSKNILYLQMNNLKTEDTGLYFCTTYYYDNGGSYSNPWGLGTLVTVSS
VL: QSVLTQPPSVSGAPGQRVTISCTGSYSNIGAGYDVLWYQQLPGTAPKLLIYGNNKRPSGVPDRFSGSKSGTSASLAITGLQAEDEADYYCQSYDSRLRDFGIFGGGTKLTVL
neutralization concentration (GMC, CPE reduction on Vero C1008 cells): 0.53 µg/mL

B2: 5T0451 (antibody, V domains shown)
VH: EVQLVESGGGLVKPGGSLRLSCAASGFTFTNAWMNWVRQAPGKGLEWIGRIKSKGDGGTADHAAPVRGRFIISRDDSKQMLYLQMTGLKSDDTAVYYCTRGPYDNFSGWRDYWGQGTLVTVSS
VL: B1 VL with Y26G, L36Q, L41H, L48V, D87H, S95A, F100S, G101W, I102V, K108Q
neutralization concentration (GMC, CPE reduction on Vero C1008 cells): 1.05 µg/mL

B3: 5T0278 (antibody, V domains shown)
VH: EVQLVESGGGLVKPGGSLRVSCAASGFPFTDAWMSWVRQAPGKGLEWVGRIKSNSDGGIPDYAAPVKGRFTISRDDSKRTLYLQMNSLKTEDTGYYYCYTLRFFGPGNSWGQGTLVTVSS
VL: B1 VL with V18I, L36S, Y38H, T44K, K55N, A76T, S95A, F100Q, G101V, I102V
neutralization concentration (GMC, CPE reduction on Vero C1008 cells): 0.63 µg/mL

B4: 4T0452 (antibody, V domains shown)
VH: EVQLVESGGGLVKPGGSLRISCAASGFSFSNAWMNWVRQAPGKGLEWVGRIKSVSDGGPIHYAAPVKGRFTISRDDSKKMLYLQMNSLKVDDTAVYYCATEPRGYDWGWGQGTLVTVSS
VL: B1 VL with L36Y, L41F, N54T, K55N, K68R, D87H, F100N, G101W, I102V, F103L
neutralization concentration (GMC, CPE reduction on Vero C1008 cells): 0.88 µg/mL

B5: 3T0338 (antibody, V domains shown)
VH: EVQLVESGGALVKPGGSLRLSCAASGFSFKTAWMNWVRQAPGKGLEWVGRIKSRADGGTSDYSASVKGRFTFSRDDSKNTLYLQMTSLKTEDTGMYYCTTLNLGGGFPGEWRSVWGQGTTVTVSS
VL: B1 VL with A31S, T44A, K55N, G79E, A86G, F100S, G101W, I102V, K108R
neutralization concentration (GMC, CPE reduction on Vero C1008 cells): 1.06 µg/mL

B6: 5T0209 (antibody, V domains shown)
VH: EVQLVDSGGGLVKPGGSLRLSCAASGFTFSKAWMSWVRQAPGKGLEWVGRIKSRTDGGTTDYAAPVRGRFTISRDDSKNTLFLQMNSLKPEDTAIYYCATDYYESRGYWGQGTLVTVSS
VL: B1 VL with Y26S, L36N, L41I, A73V, R98S, F100H, G101W, I102V
neutralization concentration (GMC, CPE reduction on Vero C1008 cells): 1.77 µg/mL

B7: 3T0331 (antibody, V domains shown)
VH: EVQLLESGGGLVQPGGSLRLSCEASGFPLRDYAMSWVRQAPGRGLQWVSTIGGNDNAANYADSVKGRFTVSRDNSKSTIYLQMNSLRAEDTALYFCAKSVRLSRPSPFDLWGQGSLVTVSS
VL: EIVLTQSPATLSLSPGERATLSCRASQSVSTYLAWYQHQPGQAPRLLIYEASNRATGIPARFSGSGSGTEFTLTISSLEPEDVAVYYCQQRASWPLTFGGGTKVEIK
neutralization concentration (GMC, CPE reduction on Vero C1008 cells): 0.011 µg/mL

B8: 3T0245 (antibody, V domains shown)
VH: EVQLVESGGDLVKPGGSLRLSCEASGFTFTNAWMNWVRQSPGKGLEWIGRVKSKSDGGAADYAAPVKGRFTISRDDSKNSVFLQMRSLKPEDTGVYYCATRVHYNGMDVWGRGTTVTVSS
VL: QSVLTQPPSVSGAPGQRVTISCAGSGSNIGAGYDVHWYQQLPGTAPKLLIYANHNRPSGVPDRFSGSKSGSSASLAITGLQAEDEADYYCQSYDSSLRDACVFGGGTKLTV
neutralization concentration (GMC, CPE reduction on Vero C1008 cells): 0.63 µg/mL

B9: 4T0444 (antibody, V domains shown)
VH: EVQLVVSGGGLVQPGGSLRLSCAASGFTLKSYDIHWVRQRPGEGLEWVAAIGAAGDTYFSGSVKGRFTISRENARNSLYLQMNSLGAGDTAIYYCARARFGDLALDYWGQGILVTVSS
VL: EIVLTQSPGTLSLSPGERATLSCRSSQSVSSNSLAWYQQKPGQAPRLLIYGASSRAAGIPDRFSGSGSGTDFTLTISRLQPEDFAVFFCHQYSSSPLTFGGGTKVEIK
neutralization concentration (GMC, CPE reduction on Vero C1008 cells): 1.2 µg/mL

B10: 4T0784 (antibody, V domains shown)
VH: QVQLVESGGGVVQPGRSLRLSCAASGFTFSTYGVHWVRQAPGKGLEWVGVIWYDGSKKYYADSVKGRFTISRDNSKNTLYLQMNSLRAEDAAVYRCVRGGDLLLLPDSIDYYGMDVWGQGTLVTVSS
VL: KDHDPQAPVSLSASVGDRVTITCRASQGIRNDLGWYQQKPGKAPKRLIYAASSLQSGVPSRFSGSGSGTEFTLTISSLQPEDFATYYCLQHNTYPFSFGPGTKVDIK
neutralization concentration (GMC, CPE reduction on Vero C1008 cells): 1.86 µg/mL

B11: 1T0455 (antibody, V domains shown)
VH: EVQLVESGGGLVKPGESLRLSCAVSGLTFSNAWMNWVRQAPGKGLEWVGRIKSKSDGGAADYAAPVNARFTISRDDSKKTLYLQMNSLKTEDTGFYYCTTLYHSGQGTLVTVSS
VL: QSVLTQPPSVSGAPGQRVTISCTGSSSNIGAGYDVHWYQQLPGTAPKFVIYGNNNRPSGVPDRFSGSKSGTSASLAITGLQVEDEGDYYCQSYDSRLSDHVVFGGGTKLTVL
neutralization concentration (GMC, CPE reduction on Vero C1008 cells): 1.77 µg/mL

B12: 3T0478 (antibody, V domains shown)
VH: VQLLQESGPGLVKPSETLSLTCTVSGGSISSYYWNWIRQSPGKGLEWMGYIYYTGSTNYNPSLKSRVTISVDLSKNQFSLKLRSVTAADTAVYYCARDKRYYDSSGYSHFDYWGQGILVTVSS
VL: QSVLTQPPSASGTPGQRVTIFCSGSSFNIGSNYVYWYQQLPGTAPKLLIYRNNERPSGVPDRFSGSKSGTSASLDISGLRSEDEADYSCAAWDGSLSGPVFGGGTKLTVL
neutralization concentration (GMC, CPE reduction on Vero C1008 cells): 0.78 µg/mL

B13: 3T0650 (antibody, V domains shown)
VH: EVQLVQSGGGLVKPGGSLRLSCAASGFTFSNAWMNWVRQAPGKGLEWIGRVKSQTDRGTKDYAAPVKGRFSISRDDSKKMLYLQMNSLKIEDTGVYYCVATPHSWSVAWGQGTLVTVSS
VL: QSVLTQPPSVSGAPGQRVTISCTGSSSNIGAGYDVQWYQQFPGTAPKLLIYGNINRPSGVPDRFSGSKSGSSASLAITRLQAEDEADYYCQSYDSSLRDQWVFGGGTKLTVL
neutralization concentration (GMC, CPE reduction on Vero C1008 cells): 0.74 µg/mL

B14: 3T0253 (antibody)
heavy: EVQLVESGGGLVKPGRSLRISCAASGITFNKAWMNWVRLAPGKGLEWVGRIKSNGDGGKRDYAAPVTGRFTISRDDSKNTLYLQMNSLKTEDTAVYFRTTRHHRGMDVWGQGTTVTVSS
light: QSVLTQPPSVSGAPGQRVTISCTGSSSNIGAGYDVHWYQHLPGAAPKLLIYGDGSRPSGVPDRFSASKSGTSASLAITGLQAEDEADYYCQSYDSSLSDAVVFGGGTKLTVL
neutralization concentration (GMC, CPE reduction on Vero C1008 cells): 1.31 µg/mL

B15: 5T0465 (antibody, V domains shown)
VH: QVQLVQSGAEVREPGASVRISCKASGYTFTSASIHWVRQAPGQGLEWMGIIDPVVGKTRSERKFNGRLIMTRDTPTSTVYMELNSLRSDDTAMYYCARSGYYPRGMDVWGQGTTVTVSS
VL: SYELTQPPSVSVSPGQTASITCSGDKLGDEYVSWYQQKPGQSPVLVISRDTRRSSGIPERFSGSNSGNTATLTISGTQAMDEADYYCQAWDSSTAVVFGGGTKLTVL
neutralization concentration (GMC, CPE reduction on Vero C1008 cells): 0.66 µg/mL

B16: 3T0202 (antibody, V domains shown)
VH: EVQLVESGGGLVQPGGSLRLSCAASGFKFRSYDMHWVRQRSGEGLEWVAAIGTAADTYYLGSVRGRFTISRENAKNSLYLQMDSLGAGDTAVYYCARAAFGAVFFDYWGQGTLVTVSS
VL: EIVLTQSPGTLSLSSGERATLSCRASQSISSSYLVWYQQKLGQAPRLLIYGASRRATGIPDRFSGSGSGTDFTLTISRLEPEDFAVYYCQQYGNSPITFGQGTRLEIK
neutralization concentration (GMC, CPE reduction on Vero C1008 cells): 0.53 µg/mL

B17: 3T0611 (antibody, V domains shown)
VH: EVQLVESGGNLVQPGGSLRLSCAASGFTFRSYSMNWVRQAPGKGLEWVSYISSSASIIHYAESVQGRFTISRDNAKNSLFLQMNSLRAEDTAVYYCAGILDDYRDYGYDYWGQGTLVTVSS
VL: SYELTQPPSVSVSPGQTARITCSGDALPKQYAYWYQQRPGQAPVLVIYKDIERPSGIPERYSGSSSGAIVTLTISGAQAEDEADYYCQSSDNNGSYRVMFGGGTKLTVL
neutralization concentration (GMC, CPE reduction on Vero C1008 cells): 0.78 µg/mL

B18: 1T0227 (antibody, V domains shown)
VH: EVQLVESGGGLVKPGGSLRLSCAASGFTFRNAWMNWVRQAPGKGLEWVGRIKSRADGGPTDYAAPVKGRFTISRDDSKNTLYLQMNSLKSEDTAVYYCTTHVPDYNSAYYWVYWGQGTLVTVSS
VL: QSVLTQPPSVSGAPGQRVTISCTGSSSNIGAGYDVYWYQQLPGTAPKLIIYGNNNRPSGVPDRFSASKSGPSASLAITGLQAEDEADYYCQSYDIRLSDNYVFGTGTKVTVL
neutralization concentration (GMC, CPE reduction on Vero C1008 cells): 1.86 µg/mL

B19: 4T0764 (antibody, V domains shown)
VH: QVQLQESGPGLVEPSETLSLTCTVSGASISSLFWSWIRQPPGKGLEWIGYIHSDGSTNYNPFLKSRVTISIDTSQNQFSLRLTSVTAADTAVYFCARGLLGSQDSWGQGTLVTVSS
VL: QSALTQPASVSGSPGQSITISCTGTSSDVGGYNYVSWYQQYPGKAPKLVIYEVTNRPSGVSNRFSGSKSGNTASLTISGLRAEDEADYHCSSYRTRNTHVIFGGGTKLTVL
neutralization concentration (GMC, CPE reduction on Vero C1008 cells): 0.88 µg/mL

B20: 3T0553 (antibody, V domains shown)
VH: QVQLVESGGGVVQPGRSLRLSCAASGFTFTTCAMHWVRQAPGKGLEWVSVMWYDGSREYYADSVKGRFTISRDNSKNTLYLEMQSLRAEDTAVYYCARGGDLLVEVDSTDYYGLDVWGQGTTVTVSS
VL: DIQMTQSPSAMSASVGDRVTITCRASQGISHSLAWFQQKPGKVPKRLIYSASTLQSGVPSRFSGSGSGTEFTLTISSLQPEDFATYYCLQHNRYPWTFGQGTKVEIK
neutralization concentration (GMC, CPE reduction on Vero C1008 cells): 1.31 µg/mL

B21: 4T0243 (antibody, V domains shown)
VH: QVQLQESGPGLVKPSETLSLTCTVSGGSLSTYYWNWIRQPPGKGLEWIGYIYYSSLPKYSPTLKSRITISVDTSKNQFSLKLSSVTAADTAVYYCARAPRGYSSGKYNYYGLDVWSQGTTVTVSS
VL: SYELTQPPSVSVSPGHTATITCSGDALSKQFAYWYQQKPGQAPVLVISKDTERPSGIPGRFSGSSSGPTATLTISGVQAEDEADYYCQSADSSGGYYVFGSGTRVTVL
neutralization concentration (GMC, CPE reduction on Vero C1008 cells): 0.011 µg/mL
